System: Glu92
Experiment: kinetics

For “AlleyCat2 (second-round evolved AlleyCat) (M144R; other substitutions not stated (includes the AlleyCat mutation that gives Glu92))”, the pKa (not stated (Figure S14 not available), Ca2+-bound, turning over leflunomide) is listed as 7.06 ± 0.02 and the pKa (turning over the Kemp elimination substrate, cited from earlier work) is listed as 6.73 ± 0.03.
